This note sets out measurements from PMC8209050 (Nature Communications, 2021).

Experiment [1] has as its target T1, SARS-CoV-2 Spike receptor binding domain (RBD), wild type, His-tagged (SARS-CoV-2, UniProt P0DTC2).
For experiment [2], the target named is T1, SARS-CoV-2 Spike receptor binding …. Nature of the experiment: BLI. Particulars: both partners purified.
For experiment [3] the target is unchanged. Nature of the experiment: cryo-EM structure. The conditions noted are these: both partners purified.
The target is the same in experiment [4]. As to the kind of experiment: crystal structure. Particulars: both partners purified.

Positions count from the first letter of the chain named.

B1: 349 (antibody, V domains shown)
VH: EVQLLESGGGLVQPGGSLRLSCAASGFTFSNYGMHWVRQAPGKGLEWVSGISSAGSITNYADSVKGRFTISRDNSKNTLYLQMNSLRAEDTAVYYCAGNHAGTTVTSEYFQHWGQGTLVTVSS
VL: DIQMTQSPSSLSASVGDRVTITCRASQSISSWLAWYQQKPGKAPKLLIYDTSNLETGVPSRFSGSGSGTDFTLTISSLQPEDFATYYCQQSYTTPWTFGQGTRLEIK
By Kd is commonly meant the concentration at which binding is half-saturated. Molecule B1 displayed an equilibrium dissociation constant (Kd) in experiment [1] of 74 nM.

B2: 160 (antibody, V domains shown)
VH: QVQLVQSGAEVKKPGASVKVSCKASGYTFTGHDMHWVRQAPGQGLEWMGIINPSGGSTSYAQKFQGRVTMTRDTSTSTVYMELSSLRSEDTAVYYCARANSLRYYYGMDVWGQGTMVTVSS
VL: B1 VL with I29V, D50A, T51A, N53S, E55Q, T56S, S91G, W96Y, R103K
As for B2, the Kd in experiment [1] came out at 7.7 nM.

B3: 108 (antibody, V domains shown)
VH: QVQLVQSGAEVKKPGASVKVSCKASGYIFSRYAIHWVRQAPGQGLEWMGWMNPISGNTDYAPNFQGRVTMTRDTSTSTVYMELSSLRSEDTAVYYCAKDGSQLAYLVEYFQHWGQGTLVTVSS
VL: B1 VL with S28V, S30T, S31N, W32N, T51A, N53T, T94F, W96Y, R103K, L104V
For B3, in experiment [1], the dissociation constant Kd is 72 nM.

B4: 178 (antibody, V domains shown)
VH: QVQLVQSGAEVKKPGASVKVSCKASGYTFTDYHMHWVRQAPGQGLEWMGWINPNSGGTNYAQKFQGRVTMTRDTSTSTVYMELSSLRSEDTAVYYCARDISSWYEITKFDPWGQGTLVTVSS
VL: EIVMTQSPATLSVSPGERATLSCKASQSVSGTYLAWYQQKPGQAPRLLIYGASTRATGIPARFSGSGSGTEFTLTISSLQSEDFAVYYCLQTHSYPPTFGQGTKVEIK
In turn, B4 displayed a Kd in experiment [1] of 72 nM.

B5: mAb 236, full-length IgG (antibody, V domains shown)
VH: QVQLVQSGAEVKKPGASVKVSCKASGGTFTSYGINWVRQAPGQGLEWMGWMNPNSGNTGYAQKFQGRVTMTRDTSTSTVYMELSSLRSEDTAVYYCASRGIQLLPRGMDVWGQGTTVTVSS
VL: not shown
In the case of B5, the binding result in experiment [2] is “binds”.

B6: mAb 80, full-length IgG (antibody, V domains shown)
VH: QVQLVQSGAEVKKPGSSVKVSCKASGGTFNRYAFSWVRQAPGQGLEWMGGIIPIFGTANYAQKFQGRVTITADESTSTAYMELSSLRSEDTAVYYCARSTRELPEVVDWYFDLWGRGTLVTVSS
VL: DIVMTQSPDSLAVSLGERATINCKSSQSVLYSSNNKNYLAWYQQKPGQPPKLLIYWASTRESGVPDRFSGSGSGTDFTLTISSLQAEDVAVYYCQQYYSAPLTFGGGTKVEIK
In the case of B6, the binding result in experiment [2] is “binds”.

B7: 56 (antibody, V domains shown)
VH: QVQLVQSGAEVKKPGASVKVSCKASGYTFTSYGISWVRQAPGQGLEWMGWISAYNGNTNYAQKLQGRVTMTRDTSTSTVYMELSSLRSEDTAVYYCARDIGPIDYWGQGTLVTVSS
VL: DIQMTQSPSSLSASVGDRVTITCRASQGISSYLAWYQQKPGKAPKLLIYDASNLQSGVPSRFSGSGSGTDFTLTISSLQPEDFATYYCQQANSFPSTFGQGTKVEIK
In experiment [1], B7 yielded a Kd of 23 nM. This counts as double-digit nanomolar.

B8: mAb 46, full-length IgG (antibody, V domains shown)
VH: EVQLLESGGGLVQPGRSLRLSCAASGFTFSSYAMSWVRQAPGKGLEWVSTIYSGGSTYYADSVKGRFTISRDNSKNTLYLQMNSLRAEDTAVYYCARGDSRDAFDIWGQGTMVTVSS
VL: B1 VL with T51A, T93S, W96F, Q100P, R103K, L104V, E105D
notes: also called antibody 46
In the case of B8, the binding result in experiment [2] is on record as “binds”.

B9: Fab 46 (Fab, V domains shown)
VH: B8 VH
VL: B1 VL with T51A, T93S, W96F, Q100P, R103K, L104V, E105D
For B9, in experiment [3], the binding result was “binds”.

B10: mAb 324, full-length IgG (antibody, V domains shown)
VH: QVQLVQSGAEVKKPGASVKVSCKASGGTFNNYGISWVRQAPGQGLEWMGWMNPNSGNTGYAQKFQGRVTMTRDTSTSTVYMELSSLRSEDTAVYYCARVGDYGDYIVSPFDLWGRGTLVTVSS
VL: B1 VL with S30T, S31T, W32Y, A34N, T51A, T93S, W96P, R103K, L104V
As to B10, in experiment [2], the binding result is recorded as “binds”.

B11: mAb 82, full-length IgG (antibody, V domains shown)
VH: QVQLVQSGAEVKKPGASVKVSCKASGGSFSTSAFYWVRQAPGQGLEWMGWINPYTGGTNYAQKFQGRVTMTRDTSTSTVYMELSSLRSEDTAVYYCARSRALYGSGSYFDYWGQGTLVTVSS
VL: B1 VL with S28V, S31N, W32Y, T51A, Y92F, T93S, T94P, W96P
For the molecule B11, the binding result in experiment [2] is given as “binds”.

B12: 128 (antibody, V domains shown)
VH: QVQLVQSGAEVKKPGASVKVSCKASGYTFTHYYMHWVRQAPGQGLEWMGIINPSSSSASYSQKFQGRVTMTRDTSTSTVYMELSSLRSEDTAVYYCARDGRYGSGSYPFDYWGQGTLVTVSS
VL: B7 VL with G28N, S31R, A34N, Q55E, S56T, S93G, S96P, V104L
In the case of B12, in experiment [1], the dissociation constant (Kd) stood at 57 nM. This lies in the double-digit nanomolar range.

B13: 64 (antibody, V domains shown)
VH: EVQLLESGGGLVQPGGSLRLSCAASGFPFSQHGMHWVRQAPGKGLEWVSAIDRSGSYIYYADSVKGRFTISRDNSKNTLYLQMNSLRAEDTAVYYCARDTYGGKVTYFDYWGQGTLVTVSS
VL: B7 VL with Y32H, Q55E, S56T, A91T, N92Y, F94T, S96W
B13 had a Kd in experiment [1] of 97 nM.

B14: 158 (antibody, V domains shown)
VH: QVQLVQSGAEVKKPGASVKVSCKASGYTFTGYYMHWVRQAPGQGLEWMGWINPLNGGTNFAPKFQGRVTMTRDTSTSTVYMELSSLRSEDTAVYYCARDPGGSYSNDAFDIWGQGTLVTVSS
VL: B7 VL with G28S, S31R, A34N, Q55E, S96L, Q100G, E105D
Take B14: the Kd in experiment [1] was 172 nM.

B15: Fab 52 (Fab, V domains shown)
VH: QVQLVQSGAEVKKPGSSVKVSCKASGYTFTSYGISWVRQAPGQGLEWMGGIIPMFGTTNYAQKFQGRVTITADKSTSTAYMELSSLRSEDTAVYYCARDRGDTIDYWGQGTLVTVSS
VL: DIQMTQSPSSLSASVGDRVTITCRASQGISNNLNWYQQKPGKAPKLLIYAASSLESGVPSRFSGSGSGTDFTLTISSLQPEDFATYYCQQGNGFPLTFGPGTKVDIK
notes: also called 52 Fab
For B15, the binding result in experiment [4] is “binds”.

B16: mAb 52, full-length IgG (antibody, V domains shown)
VH: B15 VH
VL: B15 VL
notes: also called antibody 52
As for B16, the binding result in experiment [2] is recorded as “binds”.

B17: Fab 298 (Fab, V domains shown)
VH: QVQLVQSGAEVKKPGASVKVSCKASGGTFSTYGISWVRQAPGQGLEWMGWISPNSGGTDLAQKFQGRVTMTRDTSTSTVYMELSSLRSEDTAVYYCASDPRDDIAGGYWGQGTLVTVSS
VL: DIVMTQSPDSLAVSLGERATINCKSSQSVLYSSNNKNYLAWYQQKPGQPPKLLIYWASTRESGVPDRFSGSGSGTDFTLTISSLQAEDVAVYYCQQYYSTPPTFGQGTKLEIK
notes: also called 298 Fab
In the case of B17, in experiment [4], the binding result is recorded as “binds”.

B18: mAb 298, full-length IgG (antibody, V domains shown)
VH: B17 VH
VL: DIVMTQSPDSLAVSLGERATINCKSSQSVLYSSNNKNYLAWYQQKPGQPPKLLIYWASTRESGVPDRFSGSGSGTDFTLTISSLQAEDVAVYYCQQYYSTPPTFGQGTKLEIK
notes: also called IgG 298; antibody 298
For the molecule B18, the binding result in experiment [2] was “binds”.

B19: 254 (antibody, V domains shown)
VH: EVQLLESGGGLVQPGGSLRLSCAASGFTFSSSAMHWVRQAPGKGLEWVSAIGTGGDTYYADSVKGRFTISRDNSKNTLYLQMNSLRAEDTAVYYCAREGDGYNFYFDYWGQGTLVTVSS
VL: DIQMTQSPSSLSASVGDRVTITCRASQGISSYLAWYQQKPGKAPKLLIYDASSLQIGVPSRFSGSGSGTDFTLTISSLQPEDFATYYCLQSYSTPPWTFGQGTKVEIK
As for B19, the Kd in experiment [1] turned out to be 127 nM.

B20: 120 (antibody, V domains shown)
VH: QVQLVQSGAEVKKPGASVKVSCKASGYTFTSYDINWVRQAPGQGLEWMGMIDPSGGSTSYAQKFQGRVTMTRDTSTSTVYMELSSLRSEDTAVYYCAKDFGGGTRYDYWYFDLWGRGTLVTVSS
VL: EIVMTQSPATLSVSPGERATLSCRASQSVSSRYLAWYQQKPGQAPRLLIYGASTRATGIPARFSGSGSGTEFTLTISSLQSEDFAVYYCQQYYTTPRTFGQGTRLEIK
B20: the Kd in experiment [1] was determined as 24 nM.
